Data taken from paper PMC6996649, “Rational Engineered C-Acyltransferase Transforms Sterically Demanding Acyl Donors” (ACS Catalysis, 2019).

Substrate: CC(=O)c1c(O)cc(O)cc1O
Assay: purified protein
Type: biochemical, Pseudomonas protegens
Conditions: disproportionation to DAPG, 100 mM potassium phosphate pH 7.5, 35 °C

B1: PpATaseCH (Pseudomonas protegens Pf-5) (protein)
chain: MCARRVAIVSAAYTPKPGSSRVRQTFKEMIVESAYKALKDAKMHPREIQAVAYGYHGEGISEYGGLGPTISDALGISPAPTFMSTANCTSSSVSFQMGHQMVASGEYDIVLCGGFEKMTDHFNYAEYIGSSTECEYDYFLGISHTDAFALATAEYFQKFGYAGREADVLATFGRQMRIYAQNTPTATRYGQPIPSLEVLKNSEACGSMLAWGEASGCAILVAEHLAHKYTDKPVFVRGCAYTGVSHYFGTRFHNPTLHHPGLPKDVGMAVSANSIACAEIAYKKAGITAKDIDVAQVYDLLGAGLIQMESMGICGKGQAGDFVLEGGIALDGQLPLNTDGGNIGRGHASGCDGILHITELFRQLRGESDNQVKGARIGVSQNLGGYAAHNSVIVLSND
notes: PhlABC multi-subunit acyltransferase from codon-harmonized construct, recombinant in E. coli, purified enzyme; with 2,4-diacetylphloroglucinol biosynthesis acyltransferase subunit PhlA; 2,4-diacetylphloroglucinol biosynthesis acyltransferase subunit PhlB
Protein B1 has a Km of 290 ± 40 µM, a Vmax of 4830 µM/min and a kcat of 72 ± 8 s⁻¹. For the same protein, the kcat/Km was 251000 ± 15000 M⁻¹ s⁻¹.
